Two molecules from US20240117061A1 (WUHAN YZY BIOPHARMA, published 2024) can be followed below.

The target in assay [1] is T1, recombinant human BCMA-his fusion protein (ACRO Biosystem, Cat. No. BCA-H522y) (human, UniProt Q02223 1-54).
T1 construct: extracellular domain; Bought protein; also called huBCMA-his; hu BCMA-his; not shown: His tag
T1 sequence (looked up): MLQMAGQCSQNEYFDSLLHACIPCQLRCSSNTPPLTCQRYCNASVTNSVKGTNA
Briefly: competitive ELISA, coated huBCMA-his, competitor 83A10-biotin, antibody at 7 µg/mL. (In general: In an ELISA, binding on a coated surface is turned into a signal by an enzyme label.)

Assay [2] has as its target T2, recombinant cynomolgus monkey cynoBCMA-his (ACRO Biosystem, Cat. No. BCA-052H7) (cynomolgus monkey, UniProt A0A2K5UD97 1-53).
T2 construct: extracellular domain; Bought protein; also called cynomolgus/rhesus macaque BCMA/TNFRSF17 protein; not shown: His tag
Briefly: ELISA, coated antigen. In outline: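 Plates coated overnight at 4° C with 0.5 μg/mL His-tagged BCMA antigen (human or cynomolgus) in PBS pH 7.4, then blocked with 3% BSA. Humanized antibodies in 3-fold serial dilutions (11 points) were bound 1 h at room temperature. Detection used HRP anti-His antibody and TMB, read as OD450.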

Assay [3] deals with T3, recombinant cynomolgus monkey BCMA-mFc (cynomolgus monkey; mouse).
T3 construct: also called cynoBCMA-mFc
Briefly: indirect ELISA, coated antigen. Here is the method: Procedures: Human, mouse and monkey BCMA antigens were prepared into 0.5 μg/mL coating solutions with PBS buffer. The coating solutions were added to a microplate at 100 μL/well and incubated at 4° C. overnight. The residual coating solution was discarded before 3% BSA was added at 300 μL/well, and the plate was blocked for 3 h at room temperature. The microplate was washed once with PB ST (PBS containing 0.1% of TWEEN 20) at 300 μL/well. The human-mouse chimeric monoclonal antibodies were serially 3-fold diluted from 10 μg/mL to the 9th concentration. The dilutions were added to the microplate at 100 μL/well. After a 1-h incubation at room temperature, the microplate was washed thrice with PB ST at 300 μL/well. The mouse anti-human IgG Fc antibody [HRP] mAb was 25,000-fold diluted with 1% BSA-PBST and added at 100 μL/well. After another 1-h incubation at room temperature, the microplate was washed thrice with PBST at 300 μL/well and dried. The TMB chromogenic solution was added at 100 μL/well. After a 5-min reaction at room temperature, 2 M H₂SO₄ was added at 100 μL/well to terminate the reaction. The microplate was placed on a microplate reader (Molecular Devices, SPECTRA Max plus 384) and the absorbance OD450 value was read at 450 nm wavelength.

Assay [4] deals with T2, recombinant cynomolgus monkey …. Briefly: SPR (Biacore T200), anti-His capture on CM5, 1:1 fit.
Assay [5] addresses T1, recombinant human BCMA-his fusion …. Briefly: competitive ELISA: huBCMA-his coated, varied antibody added first, then APRIL-biotin, streptavidin-peroxidase, OD450; blocked ligand APRIL. As to the method: The 96-well microplate was treated with 100 μL of 0.5 μg/mL huBCMA-his in PBS and incubated overnight at 4° C. The plate was then washed thrice with PBS washing buffer containing 0.1% of Tween-20 and blocked with 300 μL of PBS containing 1% of BSA for 2 h. 100 μL of each BCMA antibody was added to the plate. […] The plate was incubated at 37° C. for 1 h, and unbound secondary antibody was washed with PBS washing buffer containing 0.1% of Tween-20. The TMB chromogenic solution was added at 100 μL/well. After a 5-min reaction at room temperature, 2 M H₂SO₄ was added at 100 μL/well to terminate the reaction. The microplate was placed on a microplate reader (Molecular Devices, SPECTRA Max plus 384) and the absorbance OD450 value was read at 450 nm wavelength.

T2 sequence (A0A2K5UD97 entry or part of it): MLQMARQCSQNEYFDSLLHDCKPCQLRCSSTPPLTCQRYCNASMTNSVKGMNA
T3 sequence (chain, as listed by the source limits assumed): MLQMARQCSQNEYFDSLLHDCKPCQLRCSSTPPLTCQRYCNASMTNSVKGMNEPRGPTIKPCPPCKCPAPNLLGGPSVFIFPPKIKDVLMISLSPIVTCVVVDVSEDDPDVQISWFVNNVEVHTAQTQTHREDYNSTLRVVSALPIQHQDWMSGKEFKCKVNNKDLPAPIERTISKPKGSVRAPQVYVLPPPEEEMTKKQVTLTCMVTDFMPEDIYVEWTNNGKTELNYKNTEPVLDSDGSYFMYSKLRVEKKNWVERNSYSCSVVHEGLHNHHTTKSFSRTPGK

B1: human-mouse chimeric antibody c-mAb2 (antibody, human IgG1, V domains shown)
VH: QVQLQQSDAELVKPGTSVKISCKVSGYTFTDHTIHWMKQRPEQGLEWIGYIYPRNGNTKYNEKFKGKATLTADKSSSTAYMHLNSLTSEDSAVYFCARYDYDGYFDVWGTGTTVTVSS
VL: DVVMTQTPLSLPVSLGDQASISCRSSQSHVHSDGHTYLHWYLQKPGQSPELLIYKVSNRFSGVPDRFSGSGSGTDFTLKISRVEAEDLGVYFCSQNTHFPWTFGGGTKLEIK
notes: not shown: human IgG1 heavy chain constant region, GenBank No. AK303185.1; human kappa light chain constant region, GenBank No. MG815648.1
Consider B1, for which, in assay [1], the competition was 40%.

B2: human-mouse chimeric antibody c-mAb3 (antibody, human IgG1, V domains shown)
VH: EVQLQQSGPELVKPGASVKILCKASGYTITDYNMDWVKRSHGKSLEWIGNINPHNGGSIYNQKFKGKATLTVDKSSSTAFMELRSLTSEDTAVYYCARGDATLVLDYWGQGTSLTVSS
VL: DIVLTQSPASLAVSLGQRATISCRASKSVSTSGLSYMHWYQQKPGQPPKVLIYLASNLESGVPARFSGSGSGTDFTLNIHPVEEEDAATYYCQHSRELPPTFGAGTKLELK
notes: as for B1
Usually EC50 stands for the concentration needed to bring the measured effect to its halfway point. The term Kd denotes the free concentration of one partner at which half of the binding sites on the other are occupied at equilibrium, for simple one-to-one binding. Usually koff stands for the first-order rate constant of dissociation. For orientation: kon means the second-order rate constant of association. As for B2, the EC50 in assay [2] was determined as 0.0248 nM. In addition, the EC50 in assay [3] came out at 0.723 nM. In addition, in assay [4], the Kd was 0.106 nM, the koff was determined as 0.000373 s⁻¹ and the kon was found to be 3.54e+06 M⁻¹ s⁻¹. For the same molecule, the “IC50 (read off the curve)” value in assay [5] is roughly 0.4 µg/mL.
